Laboratory results: the RNAGym collection of RNA variant scans (doi:10.1073/pnas.2313332121)

B1: TPR t1 (parent)
chain: GACCAAUCUGCCCUCAGAGCUCGAGAACAUCUUCGGAUGCAGAGGAGGCAGGCUUCGGUGGCGCGAUAGCGCCAACGUCCUCAACCUCCAAUGCAUCCCACCACAUGAUGAUGCCUGAAGAGCCUUGGUUUUUUG

Variants of: B1
Test: polymerase ribozyme fitness, log enrichment relative to wild type (log ratio); higher = more active; in vitro selection for triplet polymerase activity
In short: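 One round of in vitro selection, in triplicate, was applied to PCR-built, transcribed mutant libraries of each subunit of a heterodimeric triplet polymerase ribozyme. The steps were annealing with a biotinylated primer, partner subunit and triplets, incubation frozen at −7 °C, gel excision of extended constructs, streptavidin-bead capture and RT-PCR. Fitness is the logarithm, base 2, of genotype enrichment over wild-type enrichment from inverse-variance-weighted replicate averages of Illumina-sequenced inputs and outputs, keeping genotypes with ≥10 input reads and ≥1 read per output.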

Variant	polymerase ribozyme fitness (log ratio)
G19U C123A	-2.59
G19U G39C C53U C124A	-2.93
G19U G45U A111C	-4.74
G19U G48U C79A C85A G120C U130C	-5.41
G19U G69A U106C C114A G120C	-2.51
G19U G110C	-5.06
G19U U54G A68G C70G G117C	-5.56
G19U U54G C56U C123G	-6.86
G19U U55G C70U	-3.42
C20A	-2.6
C20A A24U U54A C115G	-6.69
C20A A29G G36U	-6.08
C20A A29U C62U A119U U129G	-4.53
C20A A41C C82A	-4.5
C20A A46U	-4.55
C20A A46U C72G	-4.27
C20A A46U G52A	-3.85
C20A A66G	-4.25
C20A A84C C88A U92G C114A	-4.5
C20A A84G C86A G128U U130C	-3.64
C20A A84U A90G C98G U109A A121U	-3.83
C20A C22A G69U U81G U96G A121U	-5.24
C20A C28G C70G A83U C99U G113U	-6.88
C20A C34A A41C U109A	-4.4

Variant	polymerase ribozyme fitness (log ratio)
C20A C40A C72U C73U	-4.3
C20A C40U U59A G117U G128C	-4.96
C20A C49A U81A C104U G120C U133A G135U	-2.32
C20A C49U C72U U78C	-3.44
C20A C49U G61U C85A	-3.53
C20A C53U C72G U126G	-3.99
C20A C56A C72G A90G	-4.82
C20A C64G C114A	-7.24
C20A C64U U78C U96A C102G C114A	-6.83
C20A C73G	-3.25
C20A C88G	-3.11
C20A C89A	-3.94
C20A C98G	-5.84
C20A C101U	-3.43
C20A C114A	-2.56
C20A C115U	-3.52
C20A C123G	-0.867
C20A G23A G36A G48A G113A	-7.55
C20A G36A A84G A118G	-5.67
C20A G36C U126C	-4.66
C20A G36U G77U U116C	-5.13
C20A G42U G47U C53U	-3.95
C20A G45C	-3.43
C20A G45U C53G C88U A111U U125G	-4.56

Variant	polymerase ribozyme fitness (log ratio)
C20A G45U C53G G63C C88U A111U U125G	-5.87
C20A G48U	-3.37
C20A G51C C56A C79U U106A A121U	-7.26
C20A G57U C97A C115A U116C	-6.48
C20A G58U G71U C89G	-5.13
C20A G60A	-2.83
C20A G61A	-2.67
C20A G63A C94A U112A	-2.57
C20A G63C	-3.31
C20A G71A U129G	-5.06
C20A G71U	-2.48
C20A G120C	-1.75
C20A G120U	-2.44
C20A G122A	-3.47
C20A U21A C73G	-4.94
C20A U32A C70U G93C	-6.8
C20A U32C C56U G57U G60U C62G	-5.9
C20A U32G G35C U59G G61A A74C	-4.63
C20A U38A G48A C104A A121U	-6.26
C20A U54A U131G	-3.27
C20A U106A C124A	-1.85
C20A U112C	-1.35
C20A U112G	-1.72
C20A U131A	-3.53

Variant	polymerase ribozyme fitness (log ratio)
C20G	-3.76
C20G A26G C64A C70U U78C U112A	-5.93
C20G A37U C62G C70U U112A	-6.02
C20G A43G	-3.54
C20G A43G C89A	-3.78
C20G A50U U78C U96G U112A A118G	-6.42
C20G A83C A100U G120A U130C	-5.79
C20G A90C A95U	-4.06
C20G C40A A66G G71A G93U U112C	-6.06
C20G C40U	-2.61
C20G C40U C124U U126C	-4.35
C20G C49A U96G U112G C115G C123A	-7.57
C20G C53G C72U	-3.94
C20G C56U C82A G113C	-2.04
C20G C62U	-3.29
C20G C62U U125A	-5.73
C20G C76U	-3.75
C20G C89U U109G U132C	-3.87
C20G C99G G110C	-7.02
C20G C114G C115U	-6
C20G C115U	-4.25
C20G C123A	-4.02
C20G C124A	-2.2
C20G G35U A95C G117U	-4.02

Variant	polymerase ribozyme fitness (log ratio)
C20G G57C	-4.41
C20G G60A	-3.55
C20G G71A A83C	-5.59
C20G G71C	-5.08
C20G G93C	-4.4
C20G U32A C53G U54C G57U C97G G113A	-6.61
C20G U38G C76G	-5.6
C20G U55C G57A A90G	-5.05
C20G U78C U109G	-3.79
C20G U133G	-3.81
C20U	-1.26
C20U A26C G42U U54G C64U G122A C124A	-6.48
C20U A26U U32C G69U	-3.17
C20U A27C A84U C123A	-5.42
C20U A27G C72A C82U A84G U116C	-7.5
C20U A37G C102A	-3.43
C20U A43G U78G U87A C89G	-5.4
C20U A50U U78C	-1.87
C20U A83C U112G	-2.09
C20U A83G C101A G117U	-5.42
C20U A91G	-2.03
C20U A95C	-2.07
C20U A95C U129A	-2.94
C20U C28A	-3.79

Variant	polymerase ribozyme fitness (log ratio)
C20U C28A G93U G110C	-4.8
C20U C28G G69C G110U	-5.16
C20U C40U G60U C82A U96A C124A	-1.54
C20U C49U C56G U78G U81A C86U U133G	-3.51
C20U C62A	-2.35
C20U C62U U92A C97U	-5.74
C20U C64U C104A G107C G128A	-6.14
C20U C64U C114U A118G U131A	-0.511
C20U C72A	-1.55
C20U C72G	-1.56
C20U C72U U78A A111G C123G G135C	-3.01
C20U C73G C114G	-1.71
C20U C73U	-1.6
C20U C73U G110U G120U A121G	-3
C20U C85A	-3.94
C20U C114G	-1.55
C20U G36A G48C G113A	0.28
C20U G36C C89G	-3.93
C20U G36U G135U	-2.95
C20U G39A G110U G128A	-5.92
C20U G39U C89U A119U U130G	-4.97
C20U G42A U106A G113C	-2.24
C20U G42U C73U	-2.41
C20U G44U	-2.46

Variant	polymerase ribozyme fitness (log ratio)
C20U G45A	-2.57
C20U G45U	-2.33
C20U G45U G52A C73G C94U C104U	-4.54
C20U G48U	-2.05
C20U G52U G61U U87C	-1.96
C20U G61A C124A G135C	0.689
C20U G69C C94U	-2.8
C20U G69U	-0.346
C20U G71A	-1.94
C20U G77U	-1.15
C20U G93U	-3.35
C20U G110U	-3.13
C20U G113A	1.4
C20U G113C	-2.2
C20U U21C U116C	-2.85
C20U U30A G39C C53U C56U G60C U92C G117U A119G	-6.79
C20U U32G	-6.33
C20U U33A	-5.51
C20U U38G C72U C102U	-5.01
C20U U54A C73A C115G	-3.1
C20U U78C C124G	0.066
C20U U81C	-1.54
C20U U96A U130G	-4.47
